The values below come from patent US20040192900A1.

The target of assay [1] is Fc-CD22 (UniProt P20273). The assay can be described thus: SPR (BIAcore 2000); Fc-CD22 pre-saturated with G5/44 (competitor G5/44); combined response of G5/44 and 2nd mAb.
Assay [2] has as its target Fc-CD22 (UniProt P20273). The assay can be described thus: SPR (BIAcore 2000); inhibition of 2nd mAb binding to Fc-CD22 by prior saturation with G5/44 (competitor G5/44).
In assay [3] the target is Fc-CD22 (UniProt P20273). Description: SPR (BIAcore 2000); 2nd mAb on Fc-CD22 pre-saturated with G5/44 (competitor G5/44). On the technique in general: SPR reads the build-up and loss of mass on a sensor chip optically.
The target of assay [4] is Fc-CD22 (UniProt P20273). The assay can be described thus: SPR (BIAcore 2000); 2nd mAb on Fc-CD22 without G5/44.

On to “anti-CD19 antibody BU12 (Celltech, Slough, UK)”, for which the Response 2 after 2nd Anti-CD22 mAb (RU) with Fc-CD22 [1] is 603 RU. In the assay with Fc-CD22 [2], this substance registered an Inhibition by G544 (%) of 0%. In the assay with Fc-CD22 [3], the Response 3 (Response 2-1) (RU) is -83.5 RU and the Response 3 adjusted for OFF rate of G544 (RU) was 0 RU.

Regarding “anti-CD22 mAb 4KB128 (Dako Corp) (antibody)”, the Response 2 after 2nd Anti-CD22 mAb (RU) with Fc-CD22 [1] was 1340 RU. Besides, the Binding of 2nd mAb without G544 adjusted for background (RU) in the assay with Fc-CD22 [4] turned out to be 739 RU. In the assay with Fc-CD22 [2], this substance returned an Inhibition by G544 (%) of 0%. In the assay with Fc-CD22 [3], this substance had a Response 3 (Response 2-1) (RU) of 652 RU and a Response 3 adjusted for OFF rate of G544 (RU) of 736 RU.

As to “anti-CD22 mAb HD239 (Santa Cruz Biotech) (antibody)”, in the assay with Fc-CD22 [1], the Response 2 after 2nd Anti-CD22 mAb (RU) is 629 RU. The Binding of 2nd mAb without G544 adjusted for background (RU) in the assay with Fc-CD22 [4] was 19.3 RU. The substance further returned an Inhibition by G544 (%) with Fc-CD22 [2] of 91%. In the assay with Fc-CD22 [3], the Response 3 (Response 2-1) (RU) is -81.8 RU and the Response 3 adjusted for OFF rate of G544 (RU) was 1.7 RU.

Consider “anti-CD22 mAb SHCL-1, Leu 14 (Becton Dickinson) (antibody)”, for which, in the assay with Fc-CD22 [1], the Response 2 after 2nd Anti-CD22 mAb (RU) came out at 580 RU. This substance yielded a Binding of 2nd mAb without G544 adjusted for background (RU) with Fc-CD22 [4] of 29.3 RU. This substance returned an Inhibition by G544 (%) with Fc-CD22 [2] of 69%. In the assay with Fc-CD22 [3], this substance had a Response 3 (Response 2-1) (RU) of -74.5 RU and a Response 3 adjusted for OFF rate of G544 (RU) of 9 RU.

In the case of “anti-CD22 mAb To 15 (Dako Corp) (antibody)”, in the assay with Fc-CD22 [1], the Response 2 after 2nd Anti-CD22 mAb (RU) is 1160 RU. In the assay with Fc-CD22 [4], the Binding of 2nd mAb without G544 adjusted for background (RU) was determined as 615 RU. For the same substance, the Inhibition by G544 (%) in the assay with Fc-CD22 [2] is 7%. In the assay with Fc-CD22 [3], this substance had a Response 3 (Response 2-1) (RU) of 487 RU and a Response 3 adjusted for OFF rate of G544 (RU) of 570 RU.
